Assay results published in PMC10062202.

Substrate: CC(=O)O
Test: purified protein
Settings: 5 mM ATP, 2.5 mM CoA, 6 mM MgCl2, pH 7.5, 37 °C, His-tagged

B1: atACS (Arabidopsis acetyl-CoA synthetase) (Arabidopsis thaliana) (protein)
chain: ASEENDLVFPSKEFSGQALVSSPQQYMEMHKRSMDDPAAFWSDIASEFYWKQKWGDQVFSENLDVRKGPISIEWFKGGITNICYNCLDKNVEAGLGDKTAIHWEGNELGVDASLTYSELLQRVCQLANYLKDNGVKKGDAVVIYLPMLMELPIAMLACARIGAVHSVVFAGFSADSLAQRIVDCKPNVILTCNAVKRGPKTINLKAIVDAALDQSSKDGVSVGICLTYDNSLATTRENTKWQNGRDVWWQDVISQYPTSCEVEWVDAEDPLFLLYTSGSTGKPKGVLHTTGGYMIYTATTFKYAFDYKSTDVYWCTADCGWITGHSYVTYGPMLNGATVVVFEGAPNYPDPGRCWDIVDKYKVSIFYTAPTLVRSLMRDDDKFVTRHSRKSLRVLGSVGEPINPSAWRWFFNVVGDSRCPISDTWWQTETGGFMITPLPGAWPQKPGSATFPFFGVQPVIVDEKGNEIEGECSGYLCVKGSWPGAFRTLFGDHERYETTYFKPFAGYYFSGDGCSRDKDGYYWLTGRVDDVINVSGHRIGTAEVESALVLHPQCAEAAVVGIEHEVKGQGIYAFVTLLEGVPYSEELRKSLVLMVRNQIGAFAAPDRIHWAPGLPKTRSGKIMRRILRKIASRQLEELGDTSTLADPSVVDQLIALADV
Which Km does the source give for B1 here?
The Km was 180 ± 30 µM.

And the kcat?
Its kcat is 15.05 ± 0.65 s⁻¹.
